Data set [1] addresses WDR11-FAM91A1 complex (human) (UniProt Q658Y4). Briefly: BLI.
The data set “SEC-MALS” deals with the molecule itself. Briefly: SEC-MALS. On the technique in general: SEC sorts molecules by how far they enter the pores of the column.

WDR11-FAM91A1 complex (human), sequence (Q658Y4 whole entry, one chain of several): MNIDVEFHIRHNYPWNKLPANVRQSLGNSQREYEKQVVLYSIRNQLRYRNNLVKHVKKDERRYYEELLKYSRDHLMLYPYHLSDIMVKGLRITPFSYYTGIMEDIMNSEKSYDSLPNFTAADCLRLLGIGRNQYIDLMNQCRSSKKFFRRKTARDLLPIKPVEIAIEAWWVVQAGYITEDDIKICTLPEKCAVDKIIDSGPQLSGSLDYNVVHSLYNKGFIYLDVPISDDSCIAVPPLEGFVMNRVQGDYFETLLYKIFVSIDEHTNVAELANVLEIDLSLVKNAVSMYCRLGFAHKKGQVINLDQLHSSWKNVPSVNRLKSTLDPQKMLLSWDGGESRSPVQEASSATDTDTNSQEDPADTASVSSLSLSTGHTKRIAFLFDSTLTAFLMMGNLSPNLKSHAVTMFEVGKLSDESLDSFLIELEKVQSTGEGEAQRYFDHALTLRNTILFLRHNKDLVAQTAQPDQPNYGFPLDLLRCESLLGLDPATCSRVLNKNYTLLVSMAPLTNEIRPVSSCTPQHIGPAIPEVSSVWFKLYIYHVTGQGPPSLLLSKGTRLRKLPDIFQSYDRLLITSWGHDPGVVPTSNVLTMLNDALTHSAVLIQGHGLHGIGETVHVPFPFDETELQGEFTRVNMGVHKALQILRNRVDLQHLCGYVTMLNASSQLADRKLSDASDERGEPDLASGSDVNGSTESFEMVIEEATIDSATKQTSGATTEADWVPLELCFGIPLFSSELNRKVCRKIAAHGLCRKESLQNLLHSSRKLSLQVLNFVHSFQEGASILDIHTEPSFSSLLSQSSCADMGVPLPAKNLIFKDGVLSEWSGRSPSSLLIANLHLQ

One may read the Kd as a measure of binding affinity in units of concentration. Higher therefore signals lower affinity. For the molecule CI-MPR AC1-WT peptide, the Kd in data set [1] stood at 20.8 µM.

B1: WDR11 (natural protein, human)
chain: MLPYTVNFKVSARTLTGALNAHNKAAVDWGWQGLIAYGCHSLVVVIDSITAQTLQVLEKHKADVVKVKWARENYHHNIGSPYCLRLASADVNGKIIVWDVAAGVAQCEIQEHAKPIQDVQWLWNQDASRDLLLAIHPPNYIVLWNADTGTKLWKKSYADNILSFSFDPFDPSHLTLLTSEGIVFISDFSPSKPPSGPGKKVYISSPHSSPAHNKLATATGAKKALNKVKILITQEKPSAEFITLNDCLQLAYLPSKRNHMLLLYPREILILDLEVNQTVGVIAIERTGVPFLQVIPCFQRDGLFCLHENGCITLRVRRSYNNIFTTSNEEPDPDPVQELTYDLRSQCDAIRVTKTVRPFSMVCCPVNENAAALVVSDGRVMIWELKSAVCNRNSRNSSSGVSPLYSPVSFCGIPVGVLQNKLPDLSLDNMIGQSAIAGEEHPRGSILREVHLKFLLTGLLSGLPAPQFAIRMCPPLTTKNIKMYQPLLAVGTSNGSVLVYHLTSGLLHKELSIHSCEVKGIEWTSLTSFLSFATSTPNNMGLVRNELQLVDLPTGRSIAFRGERGNDESAIEMIKVSHLKQYLAVVFRDKPLELWDVRTCTLLREMSKNFPTITALEWSPSHNLKSLRKKQLATREAMARQTVVSDTELSIVESSVISLLQEAESKSELSQNISAREHFVFTDIDGQVYHLTVEGNSVKDSARIPPDGSMGSITCIAWKGDTLVLGDMDGNLNFWDLKGRVSRGIPTHRSWVRKIRFAPGKGNQKLIAMYNDGAEVWDTKEVQMVSSLRSGRNVTFRILDVDWCTSDKVILASDDGCIRVLEMSMKSACFRMDEQELTEPVWCPYLLVPRASLALKAFLLHQPWNGQYSLDISHVDYPENEEIKNLLQEQLNSLSNDIKKLLLDPEFTLLQRCLLVSRLYGDESELHFWTVAAHYLHSLSQEKSASTTAPKEAAPRDKLSNPLDICYDVLCENAYFQKFQLERVNLQEVKRSTYDHTRKCTDQLLLLGQTDRAVQLLLETSADNQHYYCDSLKACLVTTVTSSGPSQSTIKLVATNMIANGKLAEGVQLLCLIDKAADACRYLQTYGEWNRAAWLAKVRLNPEECADVLRRWVDHLCSPQVNQKSKALLVLLSLGCFFSVAETLHSMRYFDRAALFVEACLKYGAFEVTEDTEKLITAIYADYARSLKNLGFKQGAVLFASKAGAAGKDLLNELESPKEEPIEE
The term stoichiometry N denotes a count of units in the complex or per binding partner. As to B1, the “stoichiometry N” value in the data set “SEC-MALS” turned out to be 2.
